From patent US20230414780A1 (VECT HORUS, published 2023) come the findings set out here.

Read-outs that look alike come from different tables or passages of the source.

Assay [1] has as its target T1, human TfR ectodomain fused to a mouse IgG1 Fc fragment (human, UniProt P02786 89-760).
T1 construct: extracellular domain; ectodomain fused to the N-terminal end of the Fc, made in-house; not shown: mouse IgG1 Fc fragment
As to the kind of experiment: SPR, kinetic. The gist of the method: (§1)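 TfR–mouse Fc fusions, produced in-house, captured on HC 1500M or CM5 chips either directly or via immobilized anti-mouse IgG. VHHs injected in single-cycle or multiple-cycle kinetic mode on Biacore T200.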
A general note: Surface plasmon resonance follows binding to a sensor surface in real time, without labels.

Assay [2] deals with T2, mouse TfR ectodomain fused to a mouse IgG1 Fc fragment (mouse, UniProt Q62351 89-763).
T2 construct: extracellular domain; not shown: mouse IgG1 Fc fragment
T2 sequence (Q62351 89-763): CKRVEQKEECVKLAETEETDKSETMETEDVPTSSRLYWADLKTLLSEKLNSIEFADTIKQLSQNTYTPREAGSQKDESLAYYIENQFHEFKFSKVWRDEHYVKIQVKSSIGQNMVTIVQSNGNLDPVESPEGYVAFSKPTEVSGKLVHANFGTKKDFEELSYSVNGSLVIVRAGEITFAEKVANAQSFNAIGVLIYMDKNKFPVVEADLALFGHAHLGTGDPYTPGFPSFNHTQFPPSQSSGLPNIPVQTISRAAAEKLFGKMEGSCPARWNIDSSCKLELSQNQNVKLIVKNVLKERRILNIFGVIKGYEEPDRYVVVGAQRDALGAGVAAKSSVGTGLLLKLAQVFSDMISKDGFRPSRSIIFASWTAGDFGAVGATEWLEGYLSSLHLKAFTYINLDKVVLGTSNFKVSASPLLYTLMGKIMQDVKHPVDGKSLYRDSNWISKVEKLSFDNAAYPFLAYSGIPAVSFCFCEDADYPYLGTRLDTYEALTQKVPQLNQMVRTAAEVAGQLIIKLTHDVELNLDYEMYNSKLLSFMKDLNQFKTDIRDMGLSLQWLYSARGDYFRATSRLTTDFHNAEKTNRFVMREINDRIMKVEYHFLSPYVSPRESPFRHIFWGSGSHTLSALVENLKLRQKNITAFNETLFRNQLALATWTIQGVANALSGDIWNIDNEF
The experiment in a line: SPR, kinetic. An outline of the steps:
as §1

The target of assay [3] is T3, rhesus monkey TfR ectodomain fused to a mouse IgG1 Fc fragment (rhesus monkey, UniProt I0FKY7 89-760).
T3 construct: extracellular domain; not shown: mouse IgG1 Fc fragment
The experiment in a line: SPR, kinetic. An outline of the steps: as §1

In assay [4] the target is T4, human transferrin receptor (hTfR) fused to EGFP, on CHO cells (human, UniProt P02786 1-760).
T4 construct: whole, on cells; also called human TfR; CHO-hTfR-EGFP; not shown: EGFP from pEGFP-C1 vector, fused to the N-terminal (intracellular) end of hTfR
T4 sequence (P02786 whole entry, the tested form may be a part): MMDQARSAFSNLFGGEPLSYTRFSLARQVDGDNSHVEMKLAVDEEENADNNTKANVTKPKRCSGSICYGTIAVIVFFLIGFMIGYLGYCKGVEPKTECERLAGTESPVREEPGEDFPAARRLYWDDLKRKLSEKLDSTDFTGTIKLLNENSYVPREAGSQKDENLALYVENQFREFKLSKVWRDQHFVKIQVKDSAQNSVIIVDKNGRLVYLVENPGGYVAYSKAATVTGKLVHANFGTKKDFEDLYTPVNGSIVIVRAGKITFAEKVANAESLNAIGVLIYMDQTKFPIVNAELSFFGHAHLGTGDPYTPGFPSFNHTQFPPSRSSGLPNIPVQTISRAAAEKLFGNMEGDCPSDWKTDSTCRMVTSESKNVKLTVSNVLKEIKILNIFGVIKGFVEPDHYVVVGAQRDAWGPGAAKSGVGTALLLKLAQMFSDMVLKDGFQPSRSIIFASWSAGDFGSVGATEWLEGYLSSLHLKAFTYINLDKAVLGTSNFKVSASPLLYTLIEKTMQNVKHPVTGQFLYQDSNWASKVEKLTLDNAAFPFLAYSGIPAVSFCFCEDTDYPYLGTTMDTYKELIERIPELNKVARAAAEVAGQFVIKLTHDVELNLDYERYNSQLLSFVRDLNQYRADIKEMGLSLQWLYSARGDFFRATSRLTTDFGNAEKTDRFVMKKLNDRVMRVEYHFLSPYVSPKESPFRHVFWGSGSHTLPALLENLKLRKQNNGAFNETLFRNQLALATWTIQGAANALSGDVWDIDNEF
As to the kind of experiment: apparent Kd, flow cytometry, CHO cells. An outline of the steps:
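CHO cells expressing TfR-EGFP fusions, blocked in PBS/BSA 2%, then incubated with increasing VHH concentrations for 1 hr at 4° C. Bound VHH detected via anti-6His antibody and Alexa647 secondary, cells PFA-fixed, read by flow cytometry. Apparent Kd from nonlinear fit.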

Assay [5] concerns the target T5, murine TfR expressed by murine neuroblastoma Neuro-2a cells (mouse, UniProt Q62351 1-763).
T5 construct: whole, on cells; also called mTfR (N2a cells)
The experiment in a line: competition with the fluorescent reference VHH on Neuro-2a cells as in FIG. 25; Ki/app on mTfR, free VHH. The method, then: The binding of VHH-Oligo and VHH-hFc-Oligo conjugates to mTfR was evaluated using a competition assay on living cells expressing the receptor of interest, namely murine neuroblastoma Neuro-2a cells (N2a). N2a cells were grown in Dulbecco's Modified Eagle Medium (DMEM) GlutaMAX supplemented with 10% v/v FBS in 5% CO₂ at 37° C. Cells were seeded two days before experiments in 96-well plates at a density of 50.000 cells/well. […] Resuspended cells were transferred in a 96-deepwell plate (V-bottom) containing 1% fetal bovine serum (FBS)/0.02% sodium azide in phosphate-buffered saline (PBS) and then centrifuged for 5 min at 2000 rpm at 4° C. After removing the supernatant, 5 mM EDTA in D-PBS and 4% paraformaldehyde (PFA) (v/v 1:1) were added into wells to fix cells for 15 min at room temperature. PFA was removed by centrifugation (5 min, 3000 rpm, 4° C.) and cells were resuspended with 5 mM EDTA in D-PBS. Then the cellular A680-associated fluorescence signal was quantified using an Attune™ NxT flow cytometer (Thermo Fisher Scientific) equipped with Attune™ NxT v3.1.2. Experimental data (experimental triplicates) were fitted with GraphPad Prism® software using a nonlinear fit to determine the apparent Ki inhibition constants.

Assay [6] deals with T4, human transferrin receptor (hTfR) fused …. The experiment in a line: competition flow cytometry on CHO-hTfR-EGFP cells, 4 C; VHH competitor in dilution series, phage-C5 tracer at EC80, anti-M13-A647. The method, then:
(§2) FIGS. 17A-17D: Competition assays between VHHs and phage-VHHs. CHO-hTfR-EGFP cells were incubated 1 hr at 4° C. with VHHs (competitors) at increasing concentrations. Phage-VHHs (tracers) were then added at EC80 and incubated for 1 more hr. Phage-VHHs were detected with an anti-M13-A647 antibody (1/200). Fluorescence levels were assessed using flow cytometry. The ratio of fluorescence intensity for each point was normalized with the corresponding EGFP signal (receptor expression) and gave rise to the arbitrary unit. Data are presented as mean±SEM of independent experiments.
(§3) To evaluate whether selected VHHs compete one with the other for binding to the TfR receptor, competition assays using flow cytometry experiments were performed. All experiments were performed in 96 well plates using 2×10⁵ cells/well, at 4° C. with shaking. CHO cell line expressing the hTfR fused to EGFP was saturated with PBS/BSA 2% solution during 30 min to avoid nonspecific binding, followed by incubation with VHH (competitors) at increasing concentrations for 1 hr. Then, phage-VHHs (tracers) at EC80 were added and incubated 1 hr more. To detect the phage-VHHs, cells were washed twice with PBS/BSA 2% and incubated for 1 hr with an Alexa647-conjugated anti-M13 antibody. […] Fluorescence levels were assessed using an Attune NxT flow cytometer (Thermo Fisher Scientific). […]
A general note: In flow cytometry, cells or beads pass a laser one at a time.

Assay [7] shares this target. Described as above. The method, then: as §2, §3
The source holds these as a separate data set.

T1 sequence (P02786 89-760): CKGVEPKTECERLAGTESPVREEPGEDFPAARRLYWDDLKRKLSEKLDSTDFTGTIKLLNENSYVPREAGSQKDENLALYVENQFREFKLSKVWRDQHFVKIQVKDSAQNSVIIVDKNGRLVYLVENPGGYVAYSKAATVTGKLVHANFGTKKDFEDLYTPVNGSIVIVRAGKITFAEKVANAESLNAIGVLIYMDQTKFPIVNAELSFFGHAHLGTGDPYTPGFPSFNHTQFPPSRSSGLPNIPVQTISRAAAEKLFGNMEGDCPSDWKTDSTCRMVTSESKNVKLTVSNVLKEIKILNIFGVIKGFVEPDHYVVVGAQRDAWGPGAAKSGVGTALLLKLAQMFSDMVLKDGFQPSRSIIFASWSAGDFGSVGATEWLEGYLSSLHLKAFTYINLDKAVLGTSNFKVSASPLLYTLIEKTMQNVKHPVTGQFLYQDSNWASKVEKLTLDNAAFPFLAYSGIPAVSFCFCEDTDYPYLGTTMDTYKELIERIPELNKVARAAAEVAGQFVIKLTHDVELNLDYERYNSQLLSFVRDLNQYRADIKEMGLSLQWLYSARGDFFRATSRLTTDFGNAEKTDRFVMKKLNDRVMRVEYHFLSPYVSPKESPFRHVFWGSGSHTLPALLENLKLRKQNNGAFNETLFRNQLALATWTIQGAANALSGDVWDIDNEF
T5 sequence (Q62351 whole entry): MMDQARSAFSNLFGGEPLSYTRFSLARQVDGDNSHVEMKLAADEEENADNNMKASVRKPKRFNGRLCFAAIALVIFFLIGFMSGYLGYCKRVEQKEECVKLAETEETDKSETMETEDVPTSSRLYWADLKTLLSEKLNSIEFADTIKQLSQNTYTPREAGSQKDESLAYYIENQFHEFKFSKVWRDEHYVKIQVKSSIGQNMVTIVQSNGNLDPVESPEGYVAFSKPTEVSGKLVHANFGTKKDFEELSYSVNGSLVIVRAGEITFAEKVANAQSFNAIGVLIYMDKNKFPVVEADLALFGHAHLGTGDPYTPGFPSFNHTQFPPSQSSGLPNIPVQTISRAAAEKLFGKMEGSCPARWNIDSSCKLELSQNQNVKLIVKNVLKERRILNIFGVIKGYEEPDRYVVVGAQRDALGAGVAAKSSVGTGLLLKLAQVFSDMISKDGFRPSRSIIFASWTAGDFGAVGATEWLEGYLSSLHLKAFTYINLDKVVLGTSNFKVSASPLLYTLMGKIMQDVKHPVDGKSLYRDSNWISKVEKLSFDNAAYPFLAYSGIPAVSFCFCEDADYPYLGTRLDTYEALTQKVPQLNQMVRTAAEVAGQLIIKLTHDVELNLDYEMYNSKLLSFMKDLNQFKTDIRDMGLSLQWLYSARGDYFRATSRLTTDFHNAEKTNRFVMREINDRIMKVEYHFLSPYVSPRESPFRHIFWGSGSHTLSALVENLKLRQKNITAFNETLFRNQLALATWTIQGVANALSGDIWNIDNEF

B1: VHH A (C5) (VHH)
VHH: EVQLVESGGGVVQPGGSLKLSCVASGTDFSINFIRWYRQAPGKQREFVAGFTATGNTNYADSMKGRFTISRDNTKNAVYLQIDSLKPEDTAVYYCYMLDKWGQGTQVTVSS
notes: form with the C-terminal myc-His6 tag (x = 1), since the VHHs were detected with anti-6His or anti-cMyc; the same holds for m12 to m126
By koff is commonly meant the rate constant with which the complex falls apart. By kon is commonly meant the second-order rate constant of association. As for B1, the Kd in assay [1] amounted to 0.206 nM; in assay [2], 88.5 nM; in assay [3], 5.35 nM; in assay [4], 2.7 nM. The koff in assay [1] came out at 0.000179 s⁻¹; in assay [2], 0.0447 s⁻¹; in assay [3], 0.00774 s⁻¹. The figures for the on-rate (kon) in assay [1], in assay [2] and in assay [3] were 665000 M⁻¹ s⁻¹, 915000 M⁻¹ s⁻¹ and 1.55e+06 M⁻¹ s⁻¹, respectively. In addition, the Ki in assay [5] was determined as 319 nM. For the same molecule, the “IC50 (read off the curve)” value in assay [6] and in assay [7] was around 50 nM in each case.
